Patent US20250319190A1, “APOE LIPOPROTEIN SYSTEMS” (Kisbee Therapeutics, Inc., priority 2022, published 2025)

Key:
[1] = DMPC liposome clearance by lipid-free apolipoproteins (A325); format: biochemical; conditions: lipid-free apolipoprotein, protein:lipid 1:75, A325 over 90 minutes
Procedure: To assess the ability of lipid-free apolipoproteins to remodel DMPC liposomes, aliquots of purified polypeptide were allowed to thaw at 2-8° C. Aqueous 0.5 M tris(2-carboxyethyl)phosphine (TCEP) solution was then added to the polypeptide solution (1.5 μL per 200 μg polypeptide) to reduce any disulfide bonds that formed during storage. After incubation for >30 minutes at 2-8° C., the mixture was buffer exchanged into PBS (2 mM KH2PO4, 10 mM Na2HPO4, 140 mM NaCl, 3 mM KCl, pH 7.4) using a spin desalting column (ThermoFisher) following the manufacturer's instructions. After buffer exchange, the concentration of the polypeptide was determined by measuring the sample's absorbance at 280 nm (A280). In parallel, a mixture of DMPC (1,2-dimyristoyl-sn-glycero-3-phosphocholine) in detergent-free lipid buffer (20 mM Tris HCl, 100 mM NaCl, pH 7.4) was prepared from neat DMPC powder and adjusted to about 10 mM.
The polypeptide and DMPC solutions were combined in technical duplicate or triplicate in a UV-transparent 96-well plate (Corning) such that the molar ratio of protein:lipid was 1:75. The absorbance of the wells at 325 nm was measured every minute for 90 minutes.
Polypeptides PP124 (SEQ ID NO: 876), PP125 (SEQ ID NO: 877), PP126 (SEQ ID NO: 878), PP127 (SEQ ID NO: 879), PP128 (SEQ ID NO: 880), and PP129 (SEQ ID NO: 881) were expressed, harvested, and purified using the methods described herein (see, e.g., Example 1). The ability of these novel apolipoprotein variants to interact with and remodel DMPC liposomes was assessed to serve as a simplified proxy of the disc assembly process. The rate at which apolipoproteins achieve such remodeling is related to the facility with which they form the lipoprotein systems described in the present invention.

[2] = target: human low-density lipoprotein receptor (LDLR) protein (human, UniProt P01130 22-788, limits assumed); assay: SPR (Biacore 4000), human LDLR captured on a Protein A chip, lipoprotein as analyte, 1:1 model fit
Procedure: (§1) A surface plasmon resonance (SPR) method was developed to assess the binding response between the lipoprotein samples and the low-density lipoprotein receptor (LDLR). This interaction is relevant to the discs because the LDLR/APOE pathway plays a pivotal role in cholesterol homeostasis and lipid metabolism. Experiments were performed on a Biacore 4000 with human LDLR protein captured on a Protein A chip. For the binding studies, lipoprotein samples were diluted and tested in a 3-fold dilution series. Samples were injected for 2-3 minutes at 30 μL/min and the dissociation phase was monitored for 5-10 minutes. Response data were processed by subtracting the data from a reference surface (i.e., without receptor captured) and a buffer injection. The processed data were globally fit to a 1:1 interaction model to extract estimates of the binding constants.
Target sequence in this assay (P01130 22-788 limits assumed): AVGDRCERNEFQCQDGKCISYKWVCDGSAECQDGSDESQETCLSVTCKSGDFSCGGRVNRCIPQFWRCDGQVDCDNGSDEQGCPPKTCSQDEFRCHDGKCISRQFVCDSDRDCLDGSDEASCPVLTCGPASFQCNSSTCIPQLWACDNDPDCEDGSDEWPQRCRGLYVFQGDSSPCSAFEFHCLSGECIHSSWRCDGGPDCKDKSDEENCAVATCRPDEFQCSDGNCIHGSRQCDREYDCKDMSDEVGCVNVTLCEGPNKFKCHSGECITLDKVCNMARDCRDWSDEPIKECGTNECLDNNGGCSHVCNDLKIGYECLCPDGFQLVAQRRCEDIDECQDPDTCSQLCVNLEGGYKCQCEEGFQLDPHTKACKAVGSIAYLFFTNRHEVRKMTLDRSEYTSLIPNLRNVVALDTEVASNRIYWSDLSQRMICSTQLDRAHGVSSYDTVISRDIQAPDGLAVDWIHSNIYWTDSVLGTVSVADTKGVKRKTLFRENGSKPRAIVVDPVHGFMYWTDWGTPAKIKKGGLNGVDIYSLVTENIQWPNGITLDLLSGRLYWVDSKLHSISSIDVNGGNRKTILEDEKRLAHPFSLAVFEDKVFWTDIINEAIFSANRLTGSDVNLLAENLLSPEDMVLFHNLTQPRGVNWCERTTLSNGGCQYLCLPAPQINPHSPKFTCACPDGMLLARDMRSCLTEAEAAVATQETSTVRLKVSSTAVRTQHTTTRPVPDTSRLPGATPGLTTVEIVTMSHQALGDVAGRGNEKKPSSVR

[3] = target: T1, human low-density lipoprotein receptor (LDLR) protein (human, UniProt P01130 22-788, limits assumed); assay: SPR (Biacore 4000), human LDLR captured on Protein A chip
T1 construct: The receptor was captured on a Protein A chip in the SPR assay
Procedure: as §1
T1 sequence (P01130 22-788 limits assumed): as above

[4] = test system: experimental models of stroke, global brain ischemia, prion diseases, AD, PD, HD, ALS; conditions: intracerebral administration; cited from earlier work

Molecule | Rate of DMPC clearance Ka [1] [s⁻¹] | other results
PP1: natural human APOE isoform APOE2; SEQ ID NO: 267, 268 in b698 | 0.0032 | 
PP2: natural human APOE isoform APOE 3; SEQ ID NO: 268, 267 in b698 | 0.0145 | 
LPS1: lipoprotein system of PP9 and POPC, apolipoprotein:lipid 1:105 (other, Discoidal lipoprotein particle with POPC; Engineered truncation variant of APOE3; also called PP9/POPC) KVEQAVETEPEPELRQQTEWQSGQRWELALGRFWDYLRWVQTLSEQVQEELLSSQVTQELRALMDETMKELKAYKSELEEQLTPVAEETRARLSKELQAAQARLGADMEDVCGRLVQYRGEVQAMLGQSTEELRVRLASHLRKLRKRLLRDADDLQKRLAVYQAGAREGAERGLSAIRERLGPLVEQGRVRAATVGSLAGQPLQERAQAWGERLRARMEEMGSRTRDRLDEVKEQVAAKLEEQAQQIRLQAEAFQARLKPLVEDMQRQWAGLVEKVQAAVGTSAAPVPSDNH |  | Kd [2]: ~0.33 nM
PP124: novel truncated apolipoprotein variant SEQ ID NO: 876 (protein) KVEQAVETEPEPELRQQTEWQSGQRWELALGRFWDYLRWVQTLSEQVQEELLSSQVTQELRALMDETMKELKAYKSELEEQLTPVAEETRARLSKELQAAQARLGADMEDVCGRLVQYRGEVQAMLGQSTEELRVRLASHLRKLRKRLLRDADDLQKRLAVYQAGAREGAERGLSAIRERLGPLVEQGRVRAATVGSLAGQPLQERAQAWGERLRARMEEMGSRTRDRLDEVKEQEAAKLEEQAQQIRLQAEAFQARLKPLVEDMQRQWAGLVEKVQAAVGTSAAPVPSDNH | 0.0221 | 
LPS1 lipoprotein system (PP9 with POPC, polypeptide:lipid 1:105) (other, Discoidal lipoprotein particle with POPC at 1:105 mol/mol; also called PP9/POPC) KVEQAVETEPEPELRQQTEWQSGQRWELALGRFWDYLRWVQTLSEQVQEELLSSQVTQELRALMDETMKELKAYKSELEEQLTPVAEETRARLSKELQAAQARLGADMEDVCGRLVQYRGEVQAMLGQSTEELRVRLASHLRKLRKRLLRDADDLQKRLAVYQAGAREGAERGLSAIRERLGPLVEQGRVRAATVGSLAGQPLQERAQAWGERLRARMEEMGSRTRDRLDEVKEQVAAKLEEQAQQIRLQAEAFQARLKPLVEDMQRQWAGLVEKVQAAVGTSAAPVPSDNH |  | fold difference in KD compared to POPC lipoproteins with PP2 or PP28 [3]: ≤ 5 fold
PP125: novel truncated apolipoprotein variant SEQ ID NO: 877 (protein) KVEQAVETEPEPELRQQTEWQSGQRWELALGRFWDYLRWVQTLSEQVQEELLSSQVTQELRALMDETMKELKAYKSELEEQLTPVAEETRARLSKELQAAQARLGADMEDVCGRLVQYRGEVQAMLGQSTEELRVSLASHLRKLRKRLLRDADDLQKRLAVYQAGAREGAERGLSAIRERLGPLVEQGRVRAATVGSLAGQPLQERAQAWGERLRARMEEMGSRTRDRLDEVKEQEAAKLEEQAQQIRLQAEAFQARLKPLVEDMQRQWAGLVEKVQAAVGTSAAPVPSDNH | 0.0247 | 
LPS2: lipoprotein system of PP10 and POPC, apolipoprotein:lipid 1:100 (other, Discoidal lipoprotein particle with POPC; Engineered truncation variant of APOE3; also called PP10/POPC) KVEQAVETEPEPELRQQTEWQSGQRWELALGRFWDYLRWVQTLSEQVQEELLSSQVTQELRALMDETMKELKAYKSELEEQLTPVAEETRARLSKELQAAQARLGADMEDVCGRLVQYRGEVQAMLGQSTEELRVRLASHLRKLRKRLLRDADDLQKRLAVYQAGAREGAERGLSAIRERLGDRLDEVKEQVAEVRAKLEEQAQQIRLQAEAFQARLKSWFEPLVEDMQRQWAGLVEKVQAAVGTSAAPVPSDNH |  | Kd [2]: ~0.385 nM
LPS2 lipoprotein system (PP10 with POPC, polypeptide:lipid 1:100) (other, Discoidal lipoprotein particle with POPC at 1:100 mol/mol; also called PP10/POPC) KVEQAVETEPEPELRQQTEWQSGQRWELALGRFWDYLRWVQTLSEQVQEELLSSQVTQELRALMDETMKELKAYKSELEEQLTPVAEETRARLSKELQAAQARLGADMEDVCGRLVQYRGEVQAMLGQSTEELRVRLASHLRKLRKRLLRDADDLQKRLAVYQAGAREGAERGLSAIRERLGDRLDEVKEQVAEVRAKLEEQAQQIRLQAEAFQARLKSWFEPLVEDMQRQWAGLVEKVQAAVGTSAAPVPSDNH |  | fold difference in KD compared to POPC lipoproteins with PP2 or PP28 [3]: ≤ 5 fold
BDNF: brain-derived neurotrophic factor, a neurotherapeutic growth factor (protein, UniProt P23560 19-247, looked up) Neurotrophic factor BDNF …: APMKEANIRGQGGLAYPGVRTHGTLESVNGPKAGSRGLTSLADTFEHVIEELLDEDQKVRPNEENNKDADLYTSRVMLSSQVPLEPPLLFLLEEYKNYLDAANMSMRVRRHSDPARRGELSVCDSISEWVTAADKKTAVDMSGGTVTVLEKVPVSKGQLKQYFYETKCNPMGYTKEGCRGIDKRHWNSQCRTTQSYVRALTMDSKKRIGWRFIRIDTSCVCTLTIKRGR |  | neuroprotection [4]: neuroprotective
LPS3: lipoprotein system of PP11 and POPC, apolipoprotein:lipid 1:90 (other, Discoidal lipoprotein particle with POPC; Engineered truncation variant of APOE3; also called PP11/POPC) KVEQAVETEPEPELRQQTEWQSGQRWELALGRFWDYLRWVQTLSEQVQEELLSSQVTQELRALMDETMKELKAYKSELEEQLTPVAEETRARLSKELQAAQARLGADMEDVCGRLVQYRGEVQAMLGQSTEELRVRLASHLRKLRKRLLRDADDLQKRLAVYQAGAREGAERGLSAIRERLGDRLDEVKEQVAAKLEEQAQQIRLQAEAFQARLKPLVEDMQRQWAGLVEKVQAAVGTSAAPVPSDNH |  | Kd [2]: ~0.125 nM
PP128: novel truncated apolipoprotein variant SEQ ID NO: 880 (protein) KVEQAVETEPEPELRQQTEWQSGQRWELALGRFWDYLRWVQTLSEQVQEELLSSQVTQELRALMDETMKELKAYKSELEEQLTPVAEETRARLSKELQAAQARLGADMEDVCGRLVQYRGEVQAMLGQSTEELRVSLASHLRKLRKRLLRDADDLQKRLAVYQAGAREGAERGLSAIRERLGDRLDEVKEQEAAKLEEQAQQIRLQAEAFQARLKPLVEDMQRQWAGLVEKVQAAVGTSAAPVPSDNH | 0.0149 | 
PP129: novel truncated apolipoprotein variant SEQ ID NO: 881 (protein) KVEQAVETEPEPELRQQTEWQSGQRWELALGRFWDYLRWVQTLSEQVQEELLSSQVTQELRALMDETMKELKAYKSELEEQLTPVAEETRARLSKELQAAQARLGADMEDVCGRLVQYRGEVQAMLGQSTEELRVSLASHLRKLRKRLLRDADDLQKRLAVYQAGAREGAERGLSAIRERLGDRLDEVKEQEAAKLEEQAQQIRLQAEAFQARLKPLVEDMQRQWAGQVEKVQAAVGTSAAPVPSDNH | 0.0068 | 
PP127: novel truncated apolipoprotein variant SEQ ID NO: 879 (protein) KVEQAVETEPEPELRQQTEWQSGQRWELALGRFWDYLRWVQTLSEQVQEELLSSQVTQELRALMDETMKELKAYKSELEEQLTPVAEETRARLSKELQAAQARLGADMEDVCGRLVQYRGEVQAMLGQSTEELRVRLASHLRKLRKRLLRDADDLQKRLAVYQAGAREGAERGLSAIRERLGDRLDEVKEQEAAKLEEQAQQIRLQAEAFQARLKPLVEDMQRQWAGLVEKVQAAVGTSAAPVPSDNH | 0.0058 | 
LPS3 lipoprotein system (PP11 with POPC, polypeptide:lipid 1:90) (other, Discoidal lipoprotein particle with POPC at 1:90 mol/mol; also called PP11/POPC) KVEQAVETEPEPELRQQTEWQSGQRWELALGRFWDYLRWVQTLSEQVQEELLSSQVTQELRALMDETMKELKAYKSELEEQLTPVAEETRARLSKELQAAQARLGADMEDVCGRLVQYRGEVQAMLGQSTEELRVRLASHLRKLRKRLLRDADDLQKRLAVYQAGAREGAERGLSAIRERLGDRLDEVKEQVAAKLEEQAQQIRLQAEAFQARLKPLVEDMQRQWAGLVEKVQAAVGTSAAPVPSDNH |  | fold difference in KD compared to POPC lipoproteins with PP2 or PP28 [3]: ≤ 5 fold
PP126: novel truncated apolipoprotein variant SEQ ID NO: 878 (protein) KVEQAVETEPEPELRQQTEWQSGQRWELALGRFWDYLRWVQTLSEQVQEELLSSQVTQELRALMDETMKELKAYKSELEEQLTPVAEETRARLSKELQAAQARLGADMEDVCGRLVQYRGEVQAMLGQSTEELRVRLASHLRKLRKRLLRDADDLQKRLAVYQAGAREGAERGLSAIRERLGDRLDEVKEQVAAKLEEQAQQIRLQAEAFQARLKPLVEDMQRQWAGLVEKVQAAVGTSAAPVPSDNH | 0.0383 | 
